Results: patent US20230391852A1 (US Dept. of Health and Human Services, published 2023)

target: SARS-CoV-2 S protein trimer expressed on human A431 cells (SARS-CoV-2, UniProt P0DTC2 14-1273); assay: flow cytometry on A431 cells expressing SARS-CoV-2 S (A431-CoV-2-S)

Binder	percent of cells right of the dashed gate line
8A2 VHH-hFc (Fc fusion, also called NCI-CoV-8A2 VHH-hFc) AVQLVDSGGGSVQAGGSLRLSCAASGYTYSICTMGWYRQAPGEGLEWVSGINADGSNTHYTDSVKGRFTISRDNAKKTLYLQMNSLKPEDTAIYYCAAHGTYDKYAPCGGFAGTYTYWGQGTQVTVSS	98.7%
7A3 VHH-hFc (Fc fusion, also called 7A3-hFc; NCI-CoV-7A3 VHH-hFc fusion protein) QVQLVESGGGSVQPGGSLRLSCVVSGYTSSSRYMGWFRQVPGKGLEWVSGIKRDGTNTYYADSVKGRFTISQDNAKNTVYLQMNSLKPEDTAMYYCAAGSWYNQWGYSMDYWGKGTQVTVSS	99.5%
2F7 VHH-hFc (Fc fusion, also called 2F7-hFc; NCI-CoV-2F7 VHH-hFc fusion protein) QVKLEESGGGSVQSGGSLRLSCTVSRDTNTNINRCMGWFRQAPGKGLETVATINRDGTNTYYTDAVKGRFTISQDNVKNTVYLQMNNLTPEDTGTYICNAMGRGSGSRCDNWDPNYWGQGTQVTVSS	99.3%
8A4 VHH-hFc (Fc fusion, also called 8A4-hFc; NCI-CoV-8A4 VHH-hFc fusion protein) EVQLVESGGGLVQPGESLRLSCEASGFTFSSVYMSWVRQAPGKGLEWISTIHPAGGSTYYADSMKDRFTISRDNAKNTLYLQMNSLKSEDTALYYCIIEALSGYRGPGTQVTVSS	99.4%
1B5 VHH-hFc (Fc fusion, also called 1B5-hFc; NCI-CoV-1B5 VHH-hFc fusion protein) DVQLVESGGGSVQAGGSLRLSCTGSRYTYSTYCMGWFRQAPGKEEEAVAIINSGGGEPYYGDSVKGRFTISQDRAKNTVYLQMDGLQPDDTAIYYCVAADSHNSRCYLGRSYVNYWGQGTQVTVSS	99.1%
1H6 VHH-hFc (Fc fusion, also called 1H6-hFc; NCI-CoV-1H6 VHH-hFc fusion protein) AVQLVDSGGGSVQAGGSLNLSCVASGTTLRNGCMAWFRQVPGKEREVVAIIIRATSYTDYADSVKGRFTISQDNAKNTVYLQMKSLTPEDTATYYCAATLYRVNCAKREFDKWGQGTQVTVSS	99.5%
